From patent US20220411514A1 (published 2022) come the findings set out here.

B1: IMT-006 (antibody, V domains shown)
VH: QVQLVQSGAEVKKPGASVKVSCKASGYSFTNYYMHWVRQAPGQRLEWMGWIYPGSGNTNYNEKFQGRVTITADTSASTAYMELSSLRSEDTAVYYCSTAPGGFDVWGQGTTVTVSS
VL: DIVMTQTPLSLSVTPGQPASISCKSSKSLLHSDGITYLYWYLQKPGQSPQLLIYRMSNLASGVPDRFSGSGSGTDFTLKISRVEAEDVGVYYCAQMLEFPLTFGQGTKLEIKR
B2: 9H2.2H10 (antibody, V domains shown)
VH: QVQLQQPGAELVGPGSSVKLSCKASGYTFTNYWIHWVKQRPLQGLEWIGNIDPSDSETHYNQKFKDKATLTVDKSSSTAYMQLSSLTSEDSAVYYCARHGYYDYWGQGTTLTVSS
VL: DIVMTQSHKFMSTSVGDRVSITCKASQDVSTAVAWYQQKPGQSPKLLIYWASTRHTGVPDRFTGSGSGTDYTLTISSVQAEDLALYYCQQHYTTPLTFGAGTKLELKR
B3: 6H6.2D6 (antibody, V domains shown)
VH: QIQLVQSGPELKKPGETVKISCKASGYTFTTYGMSWVKQAPGKGLKWMAWINTYSGVPTYADDFKGRFAFSLETSASTAYLQINNLTNEDTATYFCARGPYAMDYWGQGTSVTVSS
VL: DIQMTQTTSSLSASLGDRVTISCSASQGISNYLNWYQQKPDGTVKLLIYYTSSLHSGVPSRFSGSGSGTDYSLTISNLEPEDIATYYCQQYSELPYTFGSGTKLEIKR
B4: 19B5.2E6 (antibody, V domains shown)
VH: QIQLVQSGPELKKPGETVKISCKASGYTFTTYAMSWVKQAPGKGLKWMGWINTYSGVPTYADDLKGRFAFSLETSASTAYLQINNLKNEDTATYFCARGPYAMDYWGQGTSVTVSS
VL: DIQMTQTTSSLSASLGDRVTISCSASQGINNYLNWYQQKPDGTVKLLIYYASSLHSGVPSRFSGSGSGTDYSLTISNLEPEDIATYYCQQYSQVPYTFGSGTKLEIKR
B5: 23H9.2E4 (antibody, V domains shown)
VH: QIQLVQSGPELKKPGETVKISCKASGYTFTTYAMSWVKQAPGKGLKWMGWINTYSGVPTYADDLKGRFAFSLETSASTAYLQINNLKNEDTATYFCARGPYAMDYWGQGTSVTVSS
VL: DIQMTQTTSSLSASLGDRVTISCSASQGINNYLNWYQQKPDGTVKLLIYYASSLHSGVPSRFSGSGSGTDYSLTISNLEPEDIATYYCQQYSQVPYTFGSGTKLEIK
B6: 4G2.2G6 (antibody, V domains shown)
VH: QIQLVQSGPDLKKPGETVKISCKASGYTFTTYVMSWVKQAPGKDLKWMGWINTHSGVPTYADDFKGRFDFSLETSANTAFLQINNLKNEDTATYFCTRDGNDGDAMDNWGQGTSVTVSS
VL: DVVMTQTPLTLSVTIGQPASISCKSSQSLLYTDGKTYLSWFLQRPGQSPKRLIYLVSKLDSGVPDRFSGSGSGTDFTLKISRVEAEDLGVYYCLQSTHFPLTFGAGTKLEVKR
B7: 15G7.2A7 (antibody, V domains shown)
VH: EVQLQQSGPELVKPGASVKISCKASGYTFTDYYMNWVKQSHGKSLEWIGDINPNNGGTNYNQKFKGKATLTVDKSSSTAYMELRSLTSEDSAVYYCTSGYGFPYWGQGTLVTVSA
VL: DIQMNQSPSSLSASLGDTISITCRASQNINIWLSWYQQKPGNIPQLLIYKASNLHTGVPSRFSGSGSGTDFTLTISSLQPEDIATYYCLQGQSYPLTFGAGTKLVMKR
B8: 13G4.2F8 (antibody, V domains shown)
VH: QVQLQQPGAELVKPGASVKLSCKASGYTFTSYWMHWVKQRPGQGLEWIGMIHPNSGSTDYNEKFKNKATLNVDKSSSTAYIQLSSLTSEDSAVYYCTRWGIYYYARDYWGQGTTLTVSS
VL: DIVMTQSQKFMSTSVGERVSITCKASQNVGTNVAWYQQKAGQSLELLIYGASNRHTGVPDRFTGSGSGTDFTLTITNVQSEDMTNYFCEQYSNFPLTFGAGTKLELKR
B9: 3B11.2G2 (antibody, V domains shown)
VH: QIQLVQSGPELKKPGETVKISCKTSGYKFKTYVMSWVKQAPGKALKWMGWINTYSGVPTYADDFKGRFAFSLETSASTAYLEIINLKNEDTATYFCARDGNYGDPMDYWGQGTSVTVSS
VL: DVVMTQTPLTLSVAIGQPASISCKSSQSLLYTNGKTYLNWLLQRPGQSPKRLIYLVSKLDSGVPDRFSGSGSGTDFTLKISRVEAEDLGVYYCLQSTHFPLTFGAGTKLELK
B10: 4A11.2B5 (antibody, V domains shown)
VH: QVQLQQSGPELVKPGASVKISCKASGYSFTNYYIHWVKQRPGQGLEWIGWIYPGSGNTNYNEKFKGKATLTADTSSSTTNMQLSSLTSEDSAVYYCSTAPGGFDVWGSGTTVTVSS
VL: DIVMTQAAFSNPVTLGTSASISCRSSKSLLHSDGITYLYWYLQRPGQSPQLLIYRMSNLASGVPDRFSGSGSGTDFTLRISRVEAEDVGVYYCAQMLEFPLTFGAGTKLELKR
B11: 19D9.2E5 (antibody)
chain 1: QIQLVQSGPELKKPGETVKISCKASGYTFTTYGMGWVKQAPGKGLKWMGWINTYSGVPTYADDFKGRFAFSLETSTSTAYLQINNLKNEDMATYFCATPYEYDGAYWGQGTLVTVSA
chain 2: not shown
B12: 15F10.2D6 (antibody, V domains shown)
VH: EVQLVESGGGLVKPGGSLKLSCAASGFAFSSYAMSWVRQTPEKRLEWVATISDGGVYTYYTDHVKGRFTISRDNAEDNLYLQMSHLKSEDTAMYYCVRDGGYWGQGTTLTVSS
VL: DVLMTQTPLSLPVSLGDQASISCRSSQSIVHNNGNTYLEWYLQKPGQSPKLLIYKVSNRFSGVPDRFSGSGSGTDFTLKISRVEAEDLGVYYCFQGSHVPLTFGGGTKLELKR
B13: 7D8.2D8 (antibody, V domains shown)
VH: EVQLVESGGGLVKPGGSLKLSCAASGFTFSSYAMSWVRQTPEKRLEWVATISDGGIYTYYPDNVKGRFTISRDNAKNNLFLQMSHLKSEDTAMYYCVRDGGYWGQGTTLTVSS
VL: DVLMTQTPLSLPVSLGDQASISCRSSQSIVHSNGNTYLEWYLQKPGQSPKLLIYKVSNRFSGVPDRFSGSGSGTDFTLKISRVEAEDLGVYYCFQGSHVPLTFGAGTKLELKR
B14: IMT-001 (antibody, V domains shown)
VH: QVQLVQSGSELKKPGASVKVSCKASGYTFTNYGMNWVRQAPGQGLKWMGWINTNTGEPTYVEEFTGRFVFSLETSVSTAYLQISSLKAEDTAVYFCAPYDNFFAYWGQGTTVTVSS
VL: DIVLTQSPLSLPVTPGEPASISCRSSKSLLYKDGKTYLNWFLQKPGQSPQLLIYLMSTHASGVPDRFSGSGSGTDFTLKISRVEAEDVGVYYCQQLVDYPLTFGGGTKLEIKR

hGal-3, sequence (P17931 2-250): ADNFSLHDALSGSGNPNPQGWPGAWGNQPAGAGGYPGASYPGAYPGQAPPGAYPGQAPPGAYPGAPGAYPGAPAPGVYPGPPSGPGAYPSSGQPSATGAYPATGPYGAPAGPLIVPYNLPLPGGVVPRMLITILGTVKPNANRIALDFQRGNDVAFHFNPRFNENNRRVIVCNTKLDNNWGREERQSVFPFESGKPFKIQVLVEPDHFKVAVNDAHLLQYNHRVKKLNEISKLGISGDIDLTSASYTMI

This experiment addresses hGal-3 (UniProt P17931 2-250). Description: SPR. In general terms: Surface plasmon resonance follows binding to a sensor surface in real time, without labels.
By Kd is commonly meant the constant that tells how readily two partners part at equilibrium. The molecule B1 yielded a Kd of 16.5 nM.

The molecule B2 returned a Kd of 18.4 nM.

With B3, binding was put at a Kd of 4.86 nM.

B4 returned an equilibrium dissociation constant (Kd) below 1 nM.

B5: the Kd is 4.26 nM.

In the case of B6, the equilibrium dissociation constant (Kd) was below 1 nM.

B7 displayed a Kd of 11.3 nM.

As to B8, binding was characterised by a dissociation constant (Kd) of 2.53 nM.

As for B9, the Kd was below 1 nM.

Molecule B10 had a Kd of 5.22 nM. That is a single-digit nanomolar value.

B11 had a Kd below 1 nM.

With B12, binding was characterised by a dissociation constant (Kd) of 2.06 nM. This lies in the single-digit nanomolar range.

Molecule B13 came in with an equilibrium dissociation constant (Kd) of 2.49 nM.

B14 yielded a Kd of 6.09 nM.
